{"source": "the nanobody polyreactivity screen of Harvey et al. (2022)"}
{"test": "yeast display, Sf9 membrane polyspecificity reagent, FACS + sequencing; frameworks hold sequencing errors", "procedure,_shortened": "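A nanobody's polyreactivity label depends on the gate it was sorted from. Yeast display cells were stained with 10% biotinylated, detergent-solubilized Sf9 membrane reagent for 1 hour at 4 °C, enriched on streptavidin microbeads and sorted by FACS. The low and high (top ~1%) gates were set on anti-HA fluorescence for expression and streptavidin fluorescence for reagent binding.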"}
{"sequence": "QVQLVESGGGLVQAGGSLRLSCAASGLIIYYNAMGWYRQAPGKERELVAAITSGGSTYYADSVKGRFTISRDNAKNTVYLQMNSLKPEDTAVYYCAAVPASYRYPMYYWGQGTQVTVSS", "polyreactivity (PSR sort gate)": "low polyreactivity"}
{"sequence": "QVQLVESGGGLVQAGGSLRLSCAASGLILDGYAMGWYRQAPGKERELVAAITRSGGRTYYADSVKGRFTISRDNAKNTVYLQMNSLKPEDTAVYYCAALGWSGRYRYDYWGQGTQVTVSS", "polyreactivity (PSR sort gate)": "high polyreactivity"}
{"sequence": "QVQLVESGGGLVQAGGSLRLSCAASGLILDYNDMGWYRQAPGKERELVASITGGGSTYYADSVKGRFTISRDNAKNTVYLQMNSLKPEDTAVYYCNADPVGVYGFDLDYWGQGTQVTVSS", "polyreactivity (PSR sort gate)": "low polyreactivity"}
{"sequence": "QVQLVESGGGLVQAGGSLRLSCAASGLILGSYAMGWYRQAPGKERELVAGISWSGGDTYYADSVKGRFTISRDNAKNTVYLQMNSLKPEDTAVYYCNTGGTFLDWVRRPFGFGYWGQGTQVTVSS", "polyreactivity (PSR sort gate)": "low polyreactivity"}
{"sequence": "QVQLVESGGGLVQAGGSLRLSCAASGLILGVYTMGWYRQAPGKEREFVASINFGGGSTYYADSVKGRFTISRDNAKNTVYLQMNSLKPEDTAVYYCNARSLGGGTRLYSYDYWGQGTQVTVSS", "polyreactivity (PSR sort gate)": "low polyreactivity"}
{"sequence": "QVQLVESGGGLVQAGGSLRLSCAASGLILGYYAMGWYRQAPGKERELVATIRRGASTFYADSVKGRFTISRDNAKNTVYLQLNSLKPEDTAVYYCAADTERSLAGGLYYWGQGTQVNVSS", "polyreactivity (PSR sort gate)": "low polyreactivity"}
{"sequence": "QVQLVESGGGLVQAGGSLRLSCAASGLILHINTMGWYRQAPGKERELVAAISWSGDSTYYSDSVKGRFTISRDNAKNTVYLQKNSLKPDDSAVYYGAADYWYFYTPYSYEYGYWGQGTQVTVSS", "polyreactivity (PSR sort gate)": "high polyreactivity"}
{"sequence": "QVQLVESGGGLVQAGGSLRLSCAASGLILHKYAMGGSRQAPGKERELVASINSGANTNYADSVKGRFTISRDNAKNTVYLQMNSLKPEDTAVYYCNADPGFRSGDYGYSSFDYWGQGTQVTVSS", "polyreactivity (PSR sort gate)": "low polyreactivity"}
{"sequence": "QVQLVESGGGLVQAGGSLRLSCAASGLILKYYAMGWYRQAPGKEREFVAAITRRGGITYYADSVKGRFTISRDNAKNTVYLQMNSLKPEDTAVYYCAADPKLGSLAYWRYSYPLYDYWGQGTQVTVSS", "polyreactivity (PSR sort gate)": "low polyreactivity"}
{"sequence": "QVQLVESGGGLVQAGGSLRLSCAASGLILSSNTMGWYRQAPGKERELVARIRRNDGNTYYADSVKGRFTISRDNAKNTVYLQMNSLKPEDTAVYYCAQYLAIGYYWGQGTQVTVSS", "polyreactivity (PSR sort gate)": "low polyreactivity"}
{"sequence": "QVQLVESGGGLVQAGGSLRLSCAASGLILYTYAMGCYRQAPGKERELVAAINSGGRTYYADSVKGRFTISRDNAKNTVYLQMNSLKPEDTAVYYCAADYGSRVRGFNYWGQGTQVTVSS", "polyreactivity (PSR sort gate)": "low polyreactivity"}
{"sequence": "QVQLVESGGGLVQAGGSLRLSCAASGLILYYYTIGWYRQAPGKERELVAAINSGGNTYYADSVKGRFTISRDNAKNTVYLQMNSLKPEDTAVYYCNAYRVRYKRSYDYWGQGTQVTVSS", "polyreactivity (PSR sort gate)": "high polyreactivity"}
{"sequence": "QVQLVESGGGLVQAGGSLRLSCAASGLISESYAMGWYRPAPGKERELVAAISSGGSTYYADSVKGRFTISRDNAKNTVYLQMNSLKPEDTAVYYCNASGYKYTYGHAYYYAVDYWGQGTQVTVSS", "polyreactivity (PSR sort gate)": "low polyreactivity"}
{"sequence": "QVQLVESGGGLVQAGGSLRLSCAASGLISVIYAMGWYRQAPGKERELVAAISWRGANTYYADSVKGRFTISRDNAKNTVYLQMNSLKPEDTAVYYCNAVLYVWFAPYRYDYWGQGTQVTVSS", "polyreactivity (PSR sort gate)": "high polyreactivity"}
{"sequence": "QVQLVESGGGLVQAGGSLRLSCAASGLMFSYYAMGWYRQAPGKERELVAAISWNGGSTYYADSVKGRFTISRDNAKNTVYLQMNSLKPEDTAVYYCAVRLDLGWYYYWGQGTQVTVSS", "polyreactivity (PSR sort gate)": "high polyreactivity"}
{"sequence": "QVQLVESGGGLVQAGGSLRLSCAASGLNCKTYTMGWDRQAPGKEREFVAAITTSGGSTYYADSVKGRFTISRDNAKNTVYLQMNSLKPEDTAVYYCDAVWCKSFQGSSYGMNYWGQGTLVTVSS", "polyreactivity (PSR sort gate)": "high polyreactivity"}
{"sequence": "QVQLVESGGGLVQAGGSLRLSCAASGLNFRRNAMRWYRQAPGKERELVAVIDRGGRTNYADSVKGRFTISRDNAKTTVYLQMNSLKPEDTAVYYCAKRYASTSGYWGQGTQVTVSS", "polyreactivity (PSR sort gate)": "high polyreactivity"}
{"sequence": "QVQLVESGGGLVQAGGSLRLSCAASGLPFKSNAMGWYRQAPGKERELVASISKRGGTTYYADSVKGRFTISRDNAKNTVYLQIKSLKPEDTAVYYCAAQSRATTYSWWTGSDYWGQGTEVTVSS", "polyreactivity (PSR sort gate)": "high polyreactivity"}
{"sequence": "QVQLVESGGGLVQAGGSLRLSCAASGLSLQYYAMGWYSQAPGKDRELVAAISSRGVSTYYADSVKGRFTISRDNAKNTVYLQMNSLKPEETAVDYCNARQWRFGFVARGGKYNYWGQGTQVTVSS", "polyreactivity (PSR sort gate)": "high polyreactivity"}
{"sequence": "QVQLVESGGGLVQAGGSLRLSCAASGLSSLRMLWDGLDRRLGKKGSWLPLITSGGDSTNYADSVKGRFTISRDNAKNTVYLQMNSLKPEDTAVYYCAADLDYPYGYWGQGTQVTVSS", "polyreactivity (PSR sort gate)": "low polyreactivity"}
{"sequence": "QVQLVESGGGLVQAGGSLRLSCAASGLTCSRYAMGWYRQAPGKERELVASISQGGGSTYYADSVKGRFTISRDNAKNTVYLQMTSLKPEDTAVYYCAASWYYSLQRYGYWGQGTQVTVSS", "polyreactivity (PSR sort gate)": "high polyreactivity"}
{"sequence": "QVQLVESGGGLVQAGGSLRLSCAASGLTCSYYAMGWYRQAPGQERELVAAISITGSTNYADSVKGRFTISRDNAKNTVYLQMNSLKPEDTAVYYCAARVRSGTGVGFDYWGQGTQVTVSS", "polyreactivity (PSR sort gate)": "high polyreactivity"}
{"sequence": "QVQLVESGGGLVQAGGSLRLSCAASGLTDVRYAMGWYRQAPGKEREFVAAINWRGTRTYADSVKGRYTISRDNAKNTVYLQMNSLKPEDTAVYYCAARTLYFSKYVYWGQGTQVTVSS", "polyreactivity (PSR sort gate)": "high polyreactivity"}
{"sequence": "QVQLVESGGGLVQAGGSLRLSCAASGLTFADYAMGWYRQAPGKERELVAAISSSDTSTYYADSVKGRFTISRDNAKNTVYLQMNSLKPEDTAVYYCAADEGYVWPYYGWGFGKYDYWGQGTQVTVSS", "polyreactivity (PSR sort gate)": "low polyreactivity"}
{"sequence": "QVQLVESGGGLVQAGGSLRLSCAASGLTFAINTMGLNRQAPGKESELVAAITGSGGSTYYADSVKGRFTISRDNAKYTVYLQMKSLKPEDTAVYYCAAELLYVQGYAMDFWGQGTQVTVSS", "polyreactivity (PSR sort gate)": "low polyreactivity"}
{"sequence": "QVQLVESGGGLVQAGGSLRLSCAASGLTFARNAMGWYRQAPGKERELVAAISSRGGSTYYADSVKGRFTISRDNAKNTVYLQMNSLKPEDTAVYYCATSQVLRRDRYDYWGQGTQVTVSS", "polyreactivity (PSR sort gate)": "high polyreactivity"}
{"sequence": "QVQLVESGGGLVQAGGSLRLSCAASGLTFAVYAMGWYRQAPGKVRELVAAITYSGSRTYYADSVKGRFTISRDNAKNTVYLQMNSLKPEVTAVYYCNALYRRDIKFYYWGQGTQVTVSS", "polyreactivity (PSR sort gate)": "high polyreactivity"}
{"sequence": "QVQLVESGGGLVQAGGSLRLSCAASGLTFAYYAMGWYSQAPGKEREMVASINSGGSTNYADSVKGRFTISRDNAKNTVYLLMNSLKPEDTAVYYCAADWATWWYTYDFWGQGTQVTVSS", "polyreactivity (PSR sort gate)": "high polyreactivity"}
{"sequence": "QVQLVESGGGLVQAGGSLRLSCAASGLTFAYYVMGWYRQAPGKERELVATITRGGDTNYADSVKGRFTISRDNAKNTVYLQINSLKPEDTAVYYCAAGSYRDRTFAYNYWGQGTQVTVSA", "polyreactivity (PSR sort gate)": "high polyreactivity"}
{"sequence": "QVQLVESGGGLVQAGGSLRLSCAASGLTFDANAMGWYRQAPGKERELVATITSGGSTNYADSVKGRFTISRDNAKNTVYLQMNSLKPEDTAVYYCARGTSTGTYYWYGYWGHGTQVTVSS", "polyreactivity (PSR sort gate)": "low polyreactivity"}
{"sequence": "QVQLVESGGGLVQAGGSLRLSCAASGLTFDVYTMVWYRQAPGKERELVATISETYYADSVKGRFTISRDNAKNTVYLQMNSLKPEDTAVYYCAANGFKAQYRDIVYDYGYWGQGTQVTVSS", "polyreactivity (PSR sort gate)": "low polyreactivity"}
{"sequence": "QVQLVESGGGLVQAGGSLRLSCAASGLTFDYNAMGWYRQAPGKERELVAAITSGGSTKYADSVKGRFTISRDNAKNTVYLQMNSLKPEDTAVYYCAATAYVWYYLSYTYYYWGQGTQVTVSS", "polyreactivity (PSR sort gate)": "low polyreactivity"}
{"sequence": "QVQLVESGGGLVQAGGSLRLSCAASGLTFDYYAMGWYRQAPGKERELVAAISISGDRTYYADSVKGRFTISRDNAKNTVYLQMNSLKPEDTAVYYCNARYPGSFRDDYWGQGTQVTVSS", "polyreactivity (PSR sort gate)": "high polyreactivity"}
{"sequence": "QVQLVESGGGLVQAGGSLRLSCAASGLTFFGYAMGWYRQAPGKERELVAPISSSGTRTYYADSVKGRFTISRDNAKNTVYLQMNSLKPEDTAVYYCATVRYQEYDYWGQGTQVTVSS", "polyreactivity (PSR sort gate)": "high polyreactivity"}
{"sequence": "QVQLVESGGGLVQAGGSLRLSCAASGLTFFPNVMGWYRQAPGKERELVAAISRSGDRTFYADSVKGRFTISRDNAKNTVYLQMNSLKPEDTAVYYCAADSGSSRSRRGYEYWGQGTQVTVSS", "polyreactivity (PSR sort gate)": "high polyreactivity"}
{"sequence": "QVQLVESGGGLVQAGGSLRLSCAASGLTFGDYAMGWYRQAPGKEREFVAAISSSTGRTYYADSVKGRFTISRDNAKNTVYLQMNSLKPEDTAVYYCAVRYIYPSHYGYDYWGQGTQVSVSS", "polyreactivity (PSR sort gate)": "low polyreactivity"}
{"sequence": "QVQLVESGGGLVQAGGSLRLSCAASGLTFGDYTMGWYRQAPGKERELVAAITWSGASTYSADSVKGRFTISRDNAKNTVYLQMNSLKPEDTAVYYCAAERTPSYRAYDYWAQGTQVTVSS", "polyreactivity (PSR sort gate)": "low polyreactivity"}
{"sequence": "QVQLVESGGGLVQAGGSLRLSCAASGLTFGFYAMGWYRQAPGKERELVAGISNGGSTNYADSVKGRFTISRDNAKNTVYLQMNSLKPEDTAVYYCAARLYARRLYDYWGQGTQVTVSS", "polyreactivity (PSR sort gate)": "low polyreactivity"}
{"sequence": "QVQLVESGGGLVQAGGSLRLSCAASGLTFGGYAMGWYRQAPGKERELVAAISRSGGSTYYADSVKGRFTISRDNAKNTVYLQMNSLQPEDTAVYYCNGGRGTKYDYWGQGTQVTVSS", "polyreactivity (PSR sort gate)": "low polyreactivity"}
{"sequence": "QVQLVESGGGLVQAGGSLRLSCAASGLTFGGYVMGWYRPAPGKERELVAAISWSGTRTYYADSVKGRFTISRDNAKNTVYLQMNSLKPEDTAVYYCAARVKSYNRGYYWGQGTQVTVSS", "polyreactivity (PSR sort gate)": "high polyreactivity"}
{"sequence": "QVQLVESGGGLVQAGGSLRLSCAASGLTFGHYAMGWYRQAPGKERELVATISSRGVSTRYADSVKGRFTISRDTAKNTVYLQMNSLKPEDTAVYYWHARDYTWGKYYSSKIGYYYWGQGTQVTVSS", "polyreactivity (PSR sort gate)": "high polyreactivity"}
